Source: patent US20070083037A1 (published 2007)
Where a chain is given by its changes, count along the chain named. Values belong to the binder of their own block, whether it stands above or below them. Where no end group is shown, it is not given here.

Columns and labels:
[1] = molecular target: T1, rhesus monkey NPY Y4 receptor protein of SEQ ID NO: 2 (encoded by the nucleotide sequence of SEQ ID NO: 1) (rhesus monkey, UniProt P0DQD5 1-375 (human entry)); assay: cell-based or functional assay
T1 chain: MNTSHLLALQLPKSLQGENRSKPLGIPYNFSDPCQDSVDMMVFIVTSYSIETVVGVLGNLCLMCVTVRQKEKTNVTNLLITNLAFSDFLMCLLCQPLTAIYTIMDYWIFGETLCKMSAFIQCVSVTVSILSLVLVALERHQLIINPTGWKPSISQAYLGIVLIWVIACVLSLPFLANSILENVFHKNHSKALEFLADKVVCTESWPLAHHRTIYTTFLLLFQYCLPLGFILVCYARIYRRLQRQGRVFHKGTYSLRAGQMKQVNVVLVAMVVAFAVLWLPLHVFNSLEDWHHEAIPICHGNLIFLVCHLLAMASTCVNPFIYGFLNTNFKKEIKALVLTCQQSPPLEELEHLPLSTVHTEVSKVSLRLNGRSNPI

[2] = molecular target: T2, rhesus monkey NPY Y4 receptor protein of SEQ ID NO: 4 (encoded by the nucleotide sequence of SEQ ID NO: 3) (rhesus monkey, UniProt P0DQD5 1-375 (human entry)); assay: cell-based or functional assay
T2 chain: T1 chain with V361A

[3] = molecular target: T1, rhesus monkey NPY Y4 receptor protein …; assay: competition against 59 pM [125I]human PP, COS-7 membrane fractions, filter binding
Method: (§1) The membrane fraction obtained in this manner was incubated for 2 hours at 25° C. together with 31 pM [¹²⁵I]human PP in 25 mM Tris buffer (pH 7.4) containing 10 mM MgCl₂, 1 mM phenylmethylsulfonyl fluoride, 0.1% bacitracin and 0.5% bovine serum albumin, and then filtered through a polyethyleneimine-treated UniFilter-96 GF/C (Perkin-Elmer). After rinsing with 5 mM Tris buffer (pH 7.4) containing 0.3% bovine serum albumin and drying, MicroScint0 (Perkin-Elmer) was added, and a TopCount HTS (Packard) was used to measure the residual radioactivity on the filter. The non-specific binding was measured in the presence of 1 μM human PP.
(§2) Also, with the membrane fraction concentration set to 0.155 and 0.14 mg protein/ml and the [¹²⁵I]human PP concentration set to 59 pM, human PP, human NPY and swine PYY were added to the reaction solution at different concentrations, and a Prism Version 4.00 (GraphPad) was used to determine the 50% inhibitory concentration (IC₅₀ value) from the inhibition curve for each peptide against specific [¹²⁵I]human PP binding (FIGS. 3 and 4).

[4] = molecular target: T2, rhesus monkey NPY Y4 receptor protein …; assay: as above
Method: as §1, §2

EC50 of the increase in fluorescent intensity (intracellular calcium ion concentration, Fluo-4, FLIPR) in CHO-K1 cells with G alpha 15 [1]: 1.8 nM | EC50 of the increase in fluorescent intensity (intracellular calcium ion concentration, Fluo-4, FLIPR) in CHO-K1 cells with G alpha 15 [2]: 4.8 nM | IC50 [3]: 0.24 nM | IC50 [4]: 0.17 nM
Binder: APLEPVYPGDNATPEQMAQYAADLRRYINMLTRPRY (peptide, UniProt P01298 30-65, looked up, ends and bridges not checked, mature; also called human PP; PP) [human Pancreatic Polypeptide]

IC50 [3]: 10 nM | IC50 [4]: 9.9 nM
B1: swine Peptide YY (peptide)
peptide: not shown
notes: mature; also called swine PYY; PYY

IC50 [3]: 100 nM | IC50 [4]: 97 nM
B2: human Neuropeptide-Y (peptide)
peptide: not shown
notes: mature; also called human NPY; NPY
